{
  "source": "the DeepSol protein solubility set",
  "data": [
    {"assay": "soluble on expression in E. coli; label from the status in PepcDB or PDB records", "values": [
      {"sequence": "MSNVQEWQQLANKELSRREKTVDSLVHQTAEGIAIKPLYTEADLDNLEVTGTLPGLPPYVRGPRATMYTAQPWTIRQYAGFSTAKESNAFYRRNLAAGQKGLSVAFDLATHRGYDSDNPRVAGDVGKAGVAIDTVEDMKVLFDQIPLDKMSVSMTMNGAVLPVLAFYIVAAEEQGVTPDKLTGTIQNDILKEYLCRNTYIYPPKPSMRIIADIIAWCSGNMPRFNTISISGYHMGEAGANCVQQVAFTLADGIEYIKAAISAGLKIDDFAPRLSFFFGIGMDLFMNVAMLRAARYLWSEAVSGFGAQDPKSLALRTHCQTSGWSLTEQDPYNNVIRTTIEALAATLGGTQSLHTNAFDEALGLPTDFSARIARNTQIIIQEESELCRTVDPLAGSYYIESLTDQIVKQARAIIQQIDEAGGMAKAIEAGLPKRMIEEASAREQSLIDQGKRVIVGVNKYKLDHEDETDVLEIDNVMVRNEQIASLERIRATRDDAAVTAALNALTHAAQHNENLLAAAVNAARVRATLGEISDALEVAFDRYLVPSQCVTGVIAQSYHQSEKSASEFDAIVAQTEQFLADNGRRPRILIAKMGQDGHDRGAKVIASAYSDLGFDVDLSPMFSTPEEIARLAVENDVHVVGASSLAAGHKTLIPELVEALKKWGREDICVVAGGVIPPQDYAFLQERGVAAIYGPGTPMLDSVRDVLNLISQHHD", "soluble on expression in E. coli": "soluble"},
      {"sequence": "GPGSMLAASRLARGVAETVTRENFTISRLTNGLRVITCEDGNGITGMGLFSLNGPKFEEEGSFGAAAVMESLPLRSNTRMTTETISQSLGVFGNAYKVTNNREAMSVMLMMPRYHRKEGLDVLNGMWLHPTDNDEEFAVAKAQTLHRSSLMSRDATSMLFELVHKAGWSGRGLGNPLSPTEQQLEQLTLERFHAFHRRYTTPERTVLAATGVADHKTFVQEAEVRLQFPQATAPSLHSSSAETANKAAAATAQLHPYTGGCEYVQNTMAPESMNKFQEKNLSHIALFFQAIPMAHPDYFTFSVIQTLLGGGTSFSSGGPGKGMQTKLFREVLNREPNVHGMECITAWYSDGGLIGLYGSAPHEHVNNLLKIIIFQAASISQRVTPVHVEMAKNQLSSQLILLGEGREQLLNDMGFNLLVHNYTITPQETIQGSAQVTMARLHEVCAQLIEHPITFAVYGETKGMPEYRELVQALKKSYASLSKSTPA", "soluble on expression in E. coli": "not soluble"},
      {"sequence": "MVKRNKVIKQQSCPLIDTINVISRKWLLLVLNTIGNEGKLGFNSILNSIDDISPKALSDVLKTMEEMGLVKKVIVKSSPPRVEYSLTYEGKKLRKAVIPLFKWAAEHTGHYECPILQSNKLNKEEYS", "soluble on expression in E. coli": "soluble"},
      {"sequence": "MELIRWAIELGESVHGNTYEELMPLLDYYYDRDHLKAYCIANLLLNMDVLDEDRERIELRRCIAAYYAGLYKVARKHANELVLKHPDVDLYKNNLRLMEVYLNKEYDYCLFICPKTYGSFIDIARALKWRLEQEGNTVIISETILENVKNTVVFGAHTYAYNPNLLPKDAIVYNLEQLYEGSPYAHPLYLILLKDRVIWDYSKQNIEWLKQKGVGKEIKHVEMNYAPTLEIKKDAFEDEIIEDIDILFIGALNPRRQAIFDHLKAIAPNLNIVFKNNAWGIVRNELIARAKIILNIHFYLSGILETPRVSYAVANKKFIISENSNPEDEVEWPGIVFTPYEKIIENVMKYIELPEERKRLAEKAYNHFEANESLGTLSMRDETK", "soluble on expression in E. coli": "not soluble"},
      {"sequence": "MRVLIVKTSSMGDVLHTLPALTDAQQAIPGIKFDWVVEEGFAQIPSWHAAVERVIPVAIRRWRKAWFSAPIKAERKAFREALQAKNYDAVIDAQGLVKSAALVTRLAHGVKHGMDWQTAREPLASLFYNRKHHIAKQQHAVERTRELFAKSLGYSKPQTQGDYAIAQHFLTNLPTDAGEYAVFLHATTRDDKHWPEEHWRELIGLLADSGIRIKLPWGAPHEEERAKRLAEGFAYVEVLPKMSLEGVARVLAGAKFVVSVDTGLSHLTAALDRPNITVYGPTDPGLIGGYGKNQMVCRAPGNELSQLTANAVKQFIEENAEKAAMI", "soluble on expression in E. coli": "soluble"},
      {"sequence": "MKKKIAEYEVGEQVDIFLLIKTATKGIASNGKPFLTVILQDPSGDIEAKLWDVSPEVEKQYVAETIVKVAGDILNYKGRIQLRVKQIRVANENEVTDISDFVEKAPVKKEDMVEKITQYIFEMRNPNIQRLTRHLLNKHQNEFLDYPAATKNHHEFVSGLAYHVVSMLDLAKAISNLYPSLDKDLLYAGVILHDLGKVIELSGPISTTYTLEGNLLGHISIMVNEIGKAADELQIDAEEVLILQHIVLSHHGKAEWGSPKPPLVKEAEILHYIDNLDAKMNMMDRALGRTKPGEYTERVFALDNRSFYKPSFHN", "soluble on expression in E. coli": "not soluble"},
      {"sequence": "MSLSVFDLFKIGIGPSSSHTVGPMRAAARFAEGLRREGLLEATASIKVELYGSLGATGKGHGSDKAVLLGLEGEQPDTVDTAAIPARLDAIRSSGELRLLGERPIRFVEKEHLALIRKPLAYHPNGMIFRAFDAAGLQVRSREYYSVGGGFVVDDEAAGLDRIVEDRTPLAFPFKTARQLLDHCAREGLSISQLMAENEKAWRPAEETRTGLLRIWQVMQDCVEAGCRNEGIMPGGLKVRRRAAALHRQLCQRPEAGLRDALSVLDWVNLYALAVNEENASGGRVVTAPTNGAAGIIPAVLHYYARFIPGADDDGVVRFLLTAAAIGILYKENASISGAEVGCQGEVGVACSMAAGALCEVLGGSVQQVENAAEIGMEHNLGLTCDPVGGLVQVPCIERNAMASVKAINAARMALRGDGQHFISLDKVIRTMRQTGADMKSKYKETARGGLAVNIIEC", "soluble on expression in E. coli": "not soluble"},
      {"sequence": "MTESTLAFVFPGQGSQSLGMLAELSELHPQIRETFAEASEGAGVDLWALSQGGPEEMLNRTEYTQPALLAAGVAVWRLWTAQRGQRPALLAGHSLGEYTALVAAGVLSLHDGAHLVRLRGQFMQAAAPAGVGAMAAVLGAEDAVVLEVCAEAAGSQVVVPANFNSPGQIVIGGDAAAVDRALALLAERGVRKAVKLAVSVPSHTPLMRDAANQLGEAMAGLSWHAPQIPVVQNVDARVHDGSAAIRQALVEQLYLPVQWTGCVQALASQGITRIAECGPGKVLSGLIKRIDKSLDARPLATPADYAGALDAWAH", "soluble on expression in E. coli": "soluble"},
      {"sequence": "MGSDKIHHHHHHLTLRVAVIGSGPAGSSAAETLAASGIETYLFERKLDNAKPCGGAIPLCMVSEFDLPPEIIDRRVRKMKMISPSNREVDINLINEDEYIGMCRREVLDGFLRDRAAKLGANLINATVHKLDIPGNNTDPYTIHYVDHTEGISQGIAKTLKVDLIIGADGANSRVAKEMDAGDYNYAIAFQERIRLPEDKMAYYNDLAEMYVGDDVSTDFYAWVFPKYDHVAVGTGTMHINKASIKQLQAGIRARASEKLAGGKIIKVEAHPIPEHPRPRRVVGRIALVGDAAGYVTKSSGEGIYFAAKSGRMCAETIVEASNSGSRIPTEGDLKIYLKRWDKRYGLTYKVLDILQSVFYRSDATREAFVEMCDDLDVQRLTFDSYLYKTVVPANPITQLKITAKTIGSLIRGNALAP", "soluble on expression in E. coli": "not soluble"},
      {"sequence": "MGSDKIHHHHHHMAKKTAVVDLGSNSIRMVIFEKTSRYGFYTTCEYKRKVRLGENAYNNGKILQEEAMQRAEDALAFFKQCALKHKCKKIFIVGTSALRDAPNSKNFIKRIKDNLSLNIRCIDGKSESYLGGLAALNLLSPFKDGTTLDIGGGSSELCLIKNNRIISCISLDIGTVRLKELFYDTGKMDSLEEFIKPILEQIPKEFCNQNLIAIGGSLRAISNSIMQKNSYPLKNLHDFRYMLDEEKGHILKIFNSNLDSLINFGIKKDRFDTIKEGIFIFLKIAEKIKAKQVITSGVGIREGVYLQDLLRPKITFPPNFNPSLKCLQDKFLQSKQKNKTPHFALQIFTTLKNLHKLNDNYKHTLLNAAKLCHIGEYLNFYFANEHSAHFVLGGLNYGFSHKEKALIASIIKLNGKKVNPYNLEPYKQLLPNIHTISWLNFILCLAKTLSANEDKIDFAFANNTLYIYQENKILNLPKDELKKIAKPATIALAINQKI", "soluble on expression in E. coli": "not soluble"},
      {"sequence": "MYWLFKSEPFKWSWEMQKARGEKGEQWDGVRNYQARNNMRAMKLGDKGFFYHSNEGLEVVGIVEVCALAHPDSTTDDPRWECVDIKAVRDMPKPVTLKDVKANPRLQDMSLVTSMRLSVQPVTEDEWIEVCRMGGLDANDILEHHHHHH", "soluble on expression in E. coli": "soluble"},
      {"sequence": "MIRTIERIITSTGFSLQHSDNGEITGLFYHCKLSSAYQPVFEAARNNIIGQEARIRADLNGNGEIQLSPWHIFALAPDDEQLIKLDRLCRTIHALNFLDNITNKQMKLFVSVQPRLLESVKDDHGSAFEQILDIIGIRTSRIVIEIPVEANRDWRLLKRVIMNYRAHGYLISVNYSGTNNDRISELGKLYPNVIRIDARDLLRRSVLDPLIVTAHNQGADVLVGNIETSYQLTDAIHAGADLLQGNFLARYSRKADNMLTPFSWQIPDERNGYRFDNESLQENQPYRSI", "soluble on expression in E. coli": "not soluble"},
      {"sequence": "MTLDELNRLLDPQVLALIDAHASDDPATFAMQFHGRGDLPVRAIAEQIACRKKAAAKLPSLSRFPMLYTRL", "soluble on expression in E. coli": "not soluble"},
      {"sequence": "MGSDKIHHHHHHMIIKNAKIYGDSLQDIEIKEGKITNIDSNLQGEEILDAKGMTLLPSFVDLCVSLKNDKFSLANLELLENECLKGGISSIVLRDCMDFDEESFALFLQNLAQRKMQIFSSVRVKDANGKLKNLATLLNKGACALELDSSLDANTLKVSSQYAFMKDSPIFVRCYDKDFDDNGVMNDCEMSFELGLIGMSKIAETSQIAKMKELAKFYKNKVIFDLLSLKDSLVLLDEKDLKLVSIHHLIKDDSACEDFNTAAKLMPPLRSKEDVLALREVLKEGKISFLTSLHSAKSISLKDLAFDEAAFGIHSVCEFISLCYTFLIKEGFLNWQELCRFTSKNPSEFLGLNSGVIEVGKEANLVLFDENEEIFAPKSSLYSEDKLFGKIKMHIIKGKNILEK", "soluble on expression in E. coli": "not soluble"},
      {"sequence": "AEIDTSSIVEMVQGAEDAPVEVIEYASYTCPHCAAFHEGPYKKLKADFIDTGKVRFIYREVYFDRYGLWASMVARCAGPEKFFGISDLIYKGQAEWSRAGGPAEIAEELRKIGRLAGIENDKLEACLGDATKAQTLVAWYQEHATRDDINSTPSFMINGKKVENQAYDGFKALIEAELGN", "soluble on expression in E. coli": "not soluble"},
      {"sequence": "EKKQAEEALIRSENNFRTLAENSPDIISRFDRQNRHIYVNPAAEEPYGRPPEEIIGKTHSELGMDPEKVKLWESHHEKVFATGKPESMEFGYTSSQGKEYYFNTQVVPEFIDGKVTSILVISHNIT", "soluble on expression in E. coli": "not soluble"},
      {"sequence": "MHHHHHHSSGVDLGTENLYFQSNAMKIDYLTLFPEMFDGVLNHSIMKRAQENNKLQINTVNFRDYAINKHNQVDDYPYGGGQGMVLKPEPVFNAMEDLDVTEQARVILMCPQGEPFSHQKAVELSKADHIVFICGHYEGYDERIRTHLVTDEISMGDYVLTGGELPAMTMTDAIVRLIPGVLGNEQSHQDDSFSDGLLEFPQYTRPREFKGLTVPDVLLSGNHANIDAWRHEQKLIRTYNKRPDLIEKYPLTNADKQILERYKIGLKKG", "soluble on expression in E. coli": "soluble"},
      {"sequence": "SQSAEKFQGSHLLCPGCGHGIIVREVLNAVDGPIVLGNSTGCLEVCSAVYPHTSWDVPWIHIGFENGSTAISGVEAMYKALTNKGRYQGQKPKFVAFGGDGASYDIGLQFISGCMERGHDMTYICLDNENYANTGGQRSGSTPLGASTSTTPAGSVSFGKKEKKKDIVNIMASHGVPYVAQLSPNKWKDMNKKIKTALDTEGPCFINALSPCTTEWKFESNKTIELADMAVDSLMFPLFEIFNGRELKITYRPRNIIPVRDYLGAQKRFKHLFKKENEHIIEELQKDVNERWEYLQRREEAK", "soluble on expression in E. coli": "not soluble"},
      {"sequence": "AHHHHHHGSSIKIELFGITFENPLILASGVVDMTPELLRRAHKEGAGGVVTKSIGIEPRKGYDNPTVVEVPCGLINAMGLPNPGWKAFLEEFEKESFDFPVIVSIFGGNPEEFAFLAEKLERVGDAFELNLSCPHAKGYGLEIGQDPENVYRVVKAVKDVTDKPVIAKLTPNTSDITKLGLAAEKAEADGVSAINTLKAIAIDIYAKRPILSNKFGGYSGPGIKPIALRAVYDLASKLDIPIIGIGGITTWQDAVEFLLAGASAVQIGTAVYLKGFSVFREIAEGIRKYLEEEGFSSVKEIIGLAQKV", "soluble on expression in E. coli": "soluble"}
    ]}
  ]
}
